From publication PMC12184499, “Pathogenic variants in the polycystin pore helix cause distinct forms of channel dysfunction” (Proceedings of the National Academy of Sciences of the …, 2025)
Numbering of substitutions follows the chain as printed. Names may count otherwise.

B1: PKD2 WT channel (hPKD2: 52-793) (domain or fragment, human, UniProt Q13563 52-793, looked up)
chain: LEIEMQRIRQAAARDPPAGAAASPSPPLSSCSRQAWSRDNPGFEAEEEEEEVEGEEGGMVVEMDVEWRPGSRRSAASSAVSSVGARSRGLGGYHGAGHPSGRRRRREDQGPPCPSPVGGGDPLHRHLPLEGQPPRVAWAERLVRGLRGLWGTRLMEESSTNREKYLKSVLRELVTYLLFLIVLCILTYGMMSSNVYYYTRMMSQLFLDTPVSKTEKTNFKTLSSMEDFWKFTEGSLLDGLYWKMQPSNQTEADNRSFIFYENLLLGVPRIRQLRVRNGSCSIPQDLRDEIKECYDVYSVSSEDRAPFGPRNGTAWIYTSEKDLNGSSHWGIIATYSGAGYYLDLSRTREETAAQVASLKKNVWLDRGTRATFIDFSVYNANINLFCVVRLLVEFPATGGVIPSWQFQPLKLIRYVTTFDFFLAACEIIFCFFIFYYVVEEILEIRIHKLHYFRSFWNCLDVVIVVLSVVAIGINIYRTSNVEVLLQFLEDQNTFPNFEHLAYWQIQFNNIAAVTVFFVWIKLFKFINFNRTMSQLSTTMSRCAKDLFGFAIMFFIIFLAYAQLAYLVFGTQVDDFSTFQECIFTQFRIILGDINFAEIEEANRVLGPIYFTTFVFFMFFILLNMFLAIINDTYSEVKSDLAQQKAEMELSDLIRKGYHKALVKLKLKKNTVDDISESLRQGGGKLNFDELRQDLKGKGHTDAEIEAIFTKYDQDGDQELTEHEHQQMRDDLEKEREDLDLDH
notes: PKD2 (polycystin-2), human, residues 52-793 (hPKD2: 52-793); Construct is Strep-MBP-TEV-PKD2; the Strep tag lies before MBP and the TEV site, so it probably left with MBP on TEV cleavage; The cryo-EM methods give 53-792 for the variants; also called polycystin; source: Expi293F GnTI-/- cells, transient transfection, purified (Strep-Tactin, amphipol A8-35, SEC); not shown: MBP, N-terminal, cleaved
B2: PKD2 F629S variant channel (hPKD2: 52-793) (domain or fragment, human, UniProt Q13563 52-793, looked up)
chain: B1 chain with F578S
notes: PKD2 (polycystin-2), human, residues 52-793, ADPKD germline missense variant F629S in pore helix 1; Construct is Strep-MBP-TEV-PKD2; the Strep tag probably left with MBP on TEV cleavage; The cryo-EM methods give 53-792; the model holds E214-Q694 without M295-A303; source: Expi293F GnTI-/- cells, transient transfection, purified (Strep-Tactin, amphipol A8-35, SEC); not shown: MBP, N-terminal, …
B3: PKD2 R638C variant channel (hPKD2: 52-793) (domain or fragment, human, UniProt Q13563 52-793, looked up)
chain: B1 chain with R587C
notes: PKD2 (polycystin-2), human, residues 52-793, ADPKD germline missense variant R638C in pore helix 1; Construct is Strep-MBP-TEV-PKD2; the Strep tag probably left with MBP on TEV cleavage; The cryo-EM methods give 53-792; the model holds E214-Q694 without M295-A303; source: Expi293F GnTI-/- cells, transient transfection, purified (Strep-Tactin, amphipol A8-35, SEC); not shown: MBP, N-terminal, …

Key:
[1] = target: the molecule itself; assay: SEC; Superdex 200 10/300 GL; PKD2 52-793 extracted with DDM and reconstituted in amphipol A8-35; Buffer B (25 mM pH 7.4, 150 mM NaCl, 1 mM TCEP, 1 mM CaCl2); oligomer and protomer peaks
[2] = target: the molecule itself; assay: cryo-EM structure; single-particle cryo-EM of variant channels in amphipol A8-35 (0.5 to 1.0 mg/mL), refined with C4 symmetry

Protein	binding result [1]	stoichiometry N [2]
B1	binds	
B2		4
B3		4
